Key:
[1] = biological target: N-RAP-IB (the region of N-RAP between the LIM domain and the nebulin-like repeats); experiment: ELISA
[2] = biological target: N-RAP-NH (the NH2-terminal half of N-RAP including the LIM domain); experiment: ELISA

B1: muscle LIM protein (MLP), rat, histidine-tagged, full length (natural protein)
chain: MPNWGGGAKCGACDKTVYHAEEIQCNGRSFHKTCFHCMACRKALDSTTVAAHESEIYCKVCYGRKYGPKGIGFGQGAGCLSTDTGEHLGLQFQQSPKPARAATTSNPSKFSAKFGESEKCPRCGKSVYAAEKVMGGGKPWHKTCFPCAICGKSLESTNVTDKDGELYCKVCYAKNFGPTGIGFGGLTHQVEKKE
**Q.** How did the Kd [1] turn out when B1 was run?
**A.** The Kd was 17 nM.

**Q.** What about the Kd [2] of the same binder?
**A.** The Kd was 8 nM.

Reference: publication PMC2192386
